Source: the supplement of paper PMC12455559

Assays:
[1] = purified protein yield per well (BCA); higher = higher soluble expression
Summary of the method: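 Expression was done in E. coli C41(DE3), using 2 mL autoinduction cultures with 100 µg/mL kanamycin incubated at 37 °C for 2 h and at 18 °C for 40 h. Protein was purified on Ni-charged magnetic beads and released by SUMO protease cleavage. Yield of purified protein per well was measured with the Pierce Rapid Gold BCA kit; values below 25 ug (0.1 mg/mL) are below detection.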

[2] = melting temperature (DSF); higher = more thermostable
Summary of the method: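 Enzymes made in E. coli C41(DE3) were nickel-bead purified and cut free with SUMO protease before testing. Differential scanning fluorimetry gave each melting temperature. For this, 5 μL 5X Sypro Orange was added to 45 μL enzyme (0 to 0.3 mg/mL) in sealed PCR plates, and a Bio-Rad CFX96 read fluorescence from 25 °C over 250 cycles of 0.3 °C each, ramping at 0.3 °C/s.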

[3] = PET hydrolysis, aromatic products released after 48 h (umol product/mg enzyme); higher = more PET depolymerization activity
Summary of the method: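 Sealed plates containing 3.5 mg PET (amorphous film or crystalline powder), 450 μL buffer and 5 μg (50 μL) tagless candidate enzyme were held 48 h at 40 or 60 °C with no shaking. Supernatants were then read at 260 and 280 nm against buffer blanks. The aromatic product detected this way, per mg enzyme, defines PET hydrolysis activity.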

[4] = substrate: cryPow, 40 °C, pH 4.5
[5] = substrate: cryPow, 40 °C, pH 5.5
[6] = substrate: cryPow, 40 °C, pH 6.5
[7] = substrate: cryPow, 40 °C, pH 7.5
[8] = substrate: cryPow, 60 °C, pH 4.5
[9] = substrate: cryPow, 60 °C, pH 5.5
[10] = substrate: cryPow, 60 °C, pH 6.5
[11] = substrate: cryPow, 60 °C, pH 7.5

Sequence	purified protein yield per well [1]	melting temperature [2]	PET hydrolysis [3, 4]	PET hydrolysis [3, 5]	PET hydrolysis [3, 6]	PET hydrolysis [3, 7]	PET hydrolysis [3, 8]	PET hydrolysis [3, 9]	PET hydrolysis [3, 10]	PET hydrolysis [3, 11]	PET hydrolysis ([3]; substrate: aFilm, 40 °C, pH 5.5)	PET hydrolysis ([3]; substrate: aFilm, 40 °C, pH 6.5)	PET hydrolysis ([3]; substrate: aFilm, 40 °C, pH 7.5)	PET hydrolysis ([3]; substrate: aFilm, 40 °C, pH 8.5)	PET hydrolysis ([3]; substrate: aFilm, 60 °C, pH 5.5)	PET hydrolysis ([3]; substrate: aFilm, 60 °C, pH 6.5)	PET hydrolysis ([3]; substrate: aFilm, 60 °C, pH 7.5)	PET hydrolysis ([3]; substrate: aFilm, 60 °C, pH 8.5)	PET hydrolysis ([3]; substrate: cryPow, 40 °C, pH 8.5)	PET hydrolysis ([3]; substrate: cryPow, 60 °C, pH 8.5)
SPSPGTPGGDNPYQRGPDPTVASVAAQYGPFATAQITVPPGNGFNGGFIYYPTDTSHTYGAVAIVPGYTALFADEEAWMGPRLASFGFVVIGVETNSRTDYDTARGTQLLAALDYLTNSSAVRDRVDRNRLSVIGHSMGGGGSLYAATQRPSLKAAIGLAPFKPSGNLASDTVPTMIIGGINDTTVTPSYLDGLYPTLPAATPGAYLQLANADHLYFTRPNDIELRSQIEWLKIFVDNDTRYTPFLCPSVKDTTGIVRSSVKCSTVPGGGSTPSSSRILGTQSGRCVDVPGATHNNGTRVQLYDCNGQANQQWTYTSSKQLTVYGTVCLDAAGSGNGSAVQIYSCNGQANQQWNVNANGTITGVQSGRCLDVWGTGNGQQIQIYDCNGQANQKFSLN [ESM136]	61.4 µg	55.6 C	5	18	13	< 3	< 3	< 3	< 3	< 3										
SSCDIMGDVNEDSEVDIVDALLIAQAYVGLNPTIEYHPCADVNCSGSVDIVDALLIAQKYVGLISEFSCQNTPEPTIEPTSAPVLNIACGSSSALGIFQEDQYYSGGSTHNNSNTIDVSRITVNTPPTGLFNNERYGEMSYTIPDLSAGDTYTVTLYFAETYLTSPGSRLFNVSINSTEVLTNFDIYAAAGGQNNGISQSFITTANTSGRIVIDFTAVTENPKINGISIVTGIGPTNIPTPEPTPTPENSGFQRGPDPSLESISANRGTFATAELTFPAGNGFGGGFIYYPTDTSLGTWAAVAICPGGSAKFANEETWMGHWLASFGFVVIGMETNNTYDYPESRGTQLLAALDYLTQKSAVKDRVDPDRLMVMGHSMGGGGAFHAAMARSSLKTMVALAPWFNSSLTSPSMTNLHMPAMIISARNDTVVTPASCSAIYDKIPTTTQRAWVELAADDHLGFTKSNPTEMRVLIPWMKIFLDNDERYVQFLCPIANSSNISVYKNSCPFVP [TEP039]	34.3 µg	50.8 C	< 3	< 3	< 3	< 3														
STRNQEPTLQSIEAARGPYEIATQSVPPAVNTGFGGGTIYYPATTGAGKFGAVALSPGYMEKEYSFSWLGTRLASQGFVVFIINTQNSEEFPSARTDELLASLNYLTQTSEVRDRVDPNRLAVMGHSMGGGAALEAAEKNQSLRAVISMTPWNIKTTYSDIKTPTLIIGAQYDNIAPVHDHAQPSYASLPNDLAKSYLELRNGNHFSPNMENTAIARSSTVWLKRFVDGDTRYNKFICPGPTVGDEFNIVQSNCPIL [DP079]	281 µg	60.4 C		< 3	< 3	< 3		< 3	< 3	< 3	< 3	< 3	< 3	< 3	< 3	< 3	< 3	< 3	< 3	< 3
TDNPHQRGPNPSQASISANRGTFATAETSVGSGNGFGAAKIYYPTDTGQGTFGAIAVSPGYTATWAAEGAWMGHWLASFGFVVIGIDTINRNDFDVARGTQLLAALDYLTQRSSVRTRVDPSRLAVMGHSMGGGGTISAALRRPTLKAAIGLAPYSPSQTTTGMQVPTVLLAGQNDGTSTPASIITLHNNIPASTEKAYLELTGAGHGFPTSNNSVVTRKVIPWMKIFIDQDTRYTQFLCPLQDWTGIRSYRNSCPLLPNDPGTTFSLAGSASGKCVDVPGRVQTNGTGLIIWTCNGAANQHWTRTAAGELRIYGNSKCMDASGQGARVTINSCNGGSGQKWTVGTNGTVTNAASAGCLDTGGTADNAPVIVTTCNGGSGQIWIKRS [ESM184]	34 µg	43 C	< 3	< 3	< 3	< 3														
VEIGPNPTSTLLNGNGPFSVSSSSVSSWVSGFGGGTIYYPTASGQYGVIAVCPGYTGTSSSISWFARRLATHGFVTIAMNTNSRFDFPDSRATQLAAALNYLLNSSSSTIRSRIRTADRGVAGHSMGGGGTLRASERDSNLKVGIPLTPWHTDKTWGSLSVPQMIFGADGDTVAPASSHARTFYNSIPSSTKKAYALLNNASHFTPNSTDERIGRYGVAFAKRFVDGDTRYEPFLCGAEHSTYATSWKFDTYLSTCPYGGGSEPEPDYPWWYWWR [ESM162]	31.8 µg	69.7 C	< 3	< 3	< 3	< 3														
VQIGPAPTKASLEASRGPFTVATTRLSANGHGGGTIYYPTNAGAKVGVIAIVPGYLSYQSSIEWWGPRLASHGFAVVTIDTLTIYDQPSSRSSQQLRALDQVVALGSKSTSPLYNKVDGSRTGVMGWSMGGGGSLISAQNRPSIKAAAPQAPWNTTSNFSSLTVPTLIFACQADVVAPILSHAVPFYNSMSRNPKQYLERTAGDHFCFNNANPTVGLKGVAWMKRFIDGDTRYTSFACSNPNALGFSSFRTERCS [ESM053]	103 µg	62.8 C	< 3	6	10	32	< 3	< 3	6	10										
VQIGPNPTKSSLEASRGPFSTSQFTVSRPSGYGAGTVYYPTNAGAKVGAIAIVPGFLSYQSSINWWGPRLASHGFVVITIDTYTTGDQPDSRSRQQLAALDQVIALGNTSSSPIYGKVDGSRTGVMGWSMGGGGSLISAKNRPSIKAAAPQAPWNTSTNFSSVTVPTLIFACQSDIVAPVISHAIPFYNSMTRNPKQYLEKTLGDHFCFNNANATVGLKGVAWMKRFVDGDTRYTSFACSNPNAFGFSDFRTARCS [ESM045]	30.4 µg	63.4 C	5	12	22	35														
